The target of one experiment is HIV-1 Rev L64A (HIV-1) (UniProt P04618).
In another experiment the target is HIV-1 Rev P31A (HIV-1) (UniProt P04618). Nature of the experiment: AUC.
The target in experiment [1] is T1, HIV-1 Rev, wild type (HIV-1), P04618.
T1 chain: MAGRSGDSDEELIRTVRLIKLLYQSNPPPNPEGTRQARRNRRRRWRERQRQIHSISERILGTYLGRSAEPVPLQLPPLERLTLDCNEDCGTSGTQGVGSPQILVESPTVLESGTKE
Nature of the experiment: AUC. The note with it: remark: other sources report otherwise.

Another experiment has as its target HIV-1 Rev, wild type (HIV-1, UniProt P04618). Nature of the experiment: crystal structure.

In the experiment with HIV-1 Rev L64A (HIV-1), “HIV-1 Rev L64A (from UniProt P04618 1-116) (natural protein)” gave a stoichiometry N of 2.
Consider “HIV-1 Rev P31A (from UniProt P04618 1-116) (natural protein)”, for which the stoichiometry N in the experiment with HIV-1 Rev P31A (HIV-1) is 4.

B1: HIV-1 Rev, wild type, P04618 1-116 (natural protein)
chain: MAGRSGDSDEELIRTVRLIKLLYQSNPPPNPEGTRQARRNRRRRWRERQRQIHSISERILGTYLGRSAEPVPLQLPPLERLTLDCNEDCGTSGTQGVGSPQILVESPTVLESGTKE
On to B1, for which the stoichiometry N in experiment [1] was determined as 4.

B2: anti-Rev single-chain antibody variable fragment (scFv) (scFv, V domains shown)
VH: QEQLVESGGRLVTPGTALTLTCKVSGFSLSGFWLNWVRQAPGKGLEWVGAIYRGSGSEWYASWAKGRFTISDTSTTVTLKLTSPTTEDTATYFCAADTTDNGYFTIWGPGTLVTVSS
VL: ELVMTQTPSSVSEPVGGTVTIKCQASQSISSWLSWYQQKPGQPPKLLIYDASNLASGVPSRFMGSGSGTEYTLTISGVQREDAATYYCLGGYPAASYRTAFGGGTELEII
In the case of B2, the binding result in the experiment with HIV-1 Rev, wild type is given as “binds”.

Broadly, the stoichiometry N is a count of units in the complex or per binding partner.

The record behind these values is paper PMC4938712 (Structure (London, England : 1993), 2016).
